In patent US20220048951A1:
“And” between values parts separate entries of the source, which are not always exact repeats. Equal values may be shown once.

Target: T1, CD20 on CD20 positive lymphoma cells (Daudi, Raji) (human) (UniProt P11836)
T1 sequence: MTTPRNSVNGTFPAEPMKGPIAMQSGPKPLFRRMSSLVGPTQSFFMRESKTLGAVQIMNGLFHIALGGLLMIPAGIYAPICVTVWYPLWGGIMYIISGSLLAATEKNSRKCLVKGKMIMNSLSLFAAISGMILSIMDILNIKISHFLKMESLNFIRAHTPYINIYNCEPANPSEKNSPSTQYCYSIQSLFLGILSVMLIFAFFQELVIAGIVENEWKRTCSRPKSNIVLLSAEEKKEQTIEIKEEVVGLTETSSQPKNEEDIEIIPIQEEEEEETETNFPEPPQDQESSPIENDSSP
Test: cell-based or functional assay

B1: anti-CD20 scFv-Phor18 conjugate (C-terminus) (scFv)
scFv: HHHHHHDIQLTQSPAILSASPGEKVTMTCRASSSVSYIHWFQQKPGSSPKPWIYATSNLASGVPVRFSGSGSGTSYSLTISRVEAEDAATYYCQQWTSNPPTFGGGTKLEIGSTSGGGSGGGSGGGGSSVQLQQPGAELVKPGASVKMSCKASGYTFTSYNMHWVKQTPGRGLEWIGAIYPGNGDTSYNQKFKGKATLTADKSSSTAYMQLSSLTSEDSAVYYCARSTYYGGDWYFDVWGQGTTVTVSSGSKFAKFAKKFAKFAKKFAK
With B1 the IC50 nM, cell viability 24 h, Daudi (CD20 positive) was 10 nM, the IC50 nM, cell viability 46 h, Daudi (CD20 positive) was 1.5 nM and the IC50 nM, membrane integrity 2 h, Daudi (CD20 positive) was 110 nM. For the same binder, the IC50 nM, membrane integrity 5 h, Daudi (CD20 positive) was 112 nM and the caspase 3/7 activation relative to staurosporine (100%), CD20 positive cells, 5 h was 18.3% and 29.3%.

B2: anti-CD20-Phor18 minibody conjugate Fv-CH3-CH3-Fv-Phor18 (protein)
chain: DIQLTQSPAILSASPGEKVTMTCRASSSVSYIHWFQQKPGSSPKPWIYATSNLASGVPVRFSGSGSGTSYSLTISRVEAEDAATYYCQQWTSNPPTFGGGTKLEIGSTSGGGSGGGSGGGGSSVQLQQPGAELVKPGASVKMSCKASGYTFTSYNMHWVKQTPGRGLEWIGAIYPGNGDTSYNQKFKGKATLTADKSSSTAYMQLSSLTSEDSAVYYCARSTYYGGDWYFDVWGQGTTVTVSSGQPREPQVYTLPPSRDELTKNQVSLTCLVKGFYPSDIAVEWESNGQPENNYKTTPPVLDSDGSFFLYSKLTVDKSRWQQGNVFSCSVMHEALHNHYTQKSLSLSPGKGSTSGGGSGGGSGGGGSSGQPREPQVYTLPPSRDELTKNQVSLTCLVKGFYPSDIAVEWESNGQPENNYKTTPPVLDSDGSFFLYSKLTVDKSRWQQGNVFSCSVMHEALHNHYTQKSLSLSPGKVQLQQPGAELVKPGASVKMSCKASGYTFTSYNMHWVKQTPGRGLEWIGAIYPGNGDTSYNQKFKGKATLTADKSSSTAYMQLSSLTSEDSAVYYCARSTYYGGDWYFDVWGQGTTVTVSSGSTSGGGSGGGSGGGGSSDIQLTQSPAILSASPGEKVTMTCRASSSVSYIHWFQQKPGSSPKPWIYATSNLASGVPVFSGSGSGTSYSLTISRVEAEDAATYYCQQWTSNPPTFGGGTKLEIGSKFAKFAKKFAKFAKKFAK
B2 gave an IC50 nM, cell viability 24 h, Daudi (CD20 positive) of 10.5 nM and an IC50 nM, cell viability 46 h, Daudi (CD20 positive) of 3.6 nM.
